One assay concerns the target T1, murine OX40 (murine, UniProt P47741 20-211, limits assumed).
T1 sequence (looked up): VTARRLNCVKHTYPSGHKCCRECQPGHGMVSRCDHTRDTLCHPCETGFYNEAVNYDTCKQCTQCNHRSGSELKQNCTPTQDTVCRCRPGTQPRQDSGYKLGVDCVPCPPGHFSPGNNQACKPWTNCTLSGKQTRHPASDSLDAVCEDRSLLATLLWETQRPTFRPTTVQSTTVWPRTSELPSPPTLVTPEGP
In words: ELISA. On the technique in general: ELISA stands for enzyme-linked immunosorbent assay.

Assay [1] addresses T2, CD40 (Ancell) (UniProt P25942 21-193).
T2 construct: also called CD40-Fc (Ancell #504-820); not shown: Fc part, not described
Kind of assay: ELISA.

For assay [2], the target named is T3, recombinant human CD137-Fc (R&D #838-4B) (human, UniProt Q07011 24-186).
T3 construct: Bought; also called Human CD137 (R&D systems); CD137 (R&D Systems); not shown: Fc part, not described
T3 sequence (Q07011 24-186 limits assumed): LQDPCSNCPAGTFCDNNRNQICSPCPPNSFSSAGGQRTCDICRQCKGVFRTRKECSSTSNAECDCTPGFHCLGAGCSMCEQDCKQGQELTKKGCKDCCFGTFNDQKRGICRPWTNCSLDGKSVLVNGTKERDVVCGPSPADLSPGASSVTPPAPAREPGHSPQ
In words: ELISA.

The target of assay [3] is T4, OX40 chimera 1548: human OX40 with mouse module 3 and domains 4A and 4B (aa 108-167), on FreeStyle 293-F cells (human; mouse, UniProt P47741 104-165).
T4 construct: domain: module 3, 4A and 4B; Limits derived as for 1544
T4 sequence: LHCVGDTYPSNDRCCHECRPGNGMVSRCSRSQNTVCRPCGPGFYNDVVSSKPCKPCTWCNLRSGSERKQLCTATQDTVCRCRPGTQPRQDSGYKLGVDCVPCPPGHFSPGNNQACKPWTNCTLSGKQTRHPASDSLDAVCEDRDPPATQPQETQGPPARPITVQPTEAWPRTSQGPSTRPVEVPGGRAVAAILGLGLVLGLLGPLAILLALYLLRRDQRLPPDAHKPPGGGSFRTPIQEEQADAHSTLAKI
Kind of assay: flow cytometry, 293-F transfectants. The protocol: (§1) The mouse/human chimeras were transiently transfected into FreeStyle 293-F cells (Invitrogen), incubated 48 hours in FreeStyle 293 expression medium (Invitrogen) 37 C, 8% CO₂, 135 rpm. The transfected cells were incubated with human OX40 antibodies, human OX40L (hOX40L, RnD Systems), mouse OX40L (mOX40L, RnD Systems) and controls for 30 min 4° C. and then detected with a-huIgG-PE (Jackson Immunoresearch) 30 min 4° C. Cells were analyzed with FACS Verse (BD Biosciences). Binding to the different chimeric constructs were calculated as relative (mean fluorescence intensity) MFI compared to the binding of the isotype control.
For orientation: In flow cytometry, cells or beads pass a laser one at a time.

Assay [4] addresses T5, OX40 chimera 1549: human OX40 with mouse domains 1A and 4B and non-annotated extracellular region (aa 30-65 … (human; mouse, UniProt P47741 26-61; P47741 125-211).
T5 construct: domain: 1A;domain: 4B and non-annotated extracellular region; Limits derived as for 1544
T5 sequence: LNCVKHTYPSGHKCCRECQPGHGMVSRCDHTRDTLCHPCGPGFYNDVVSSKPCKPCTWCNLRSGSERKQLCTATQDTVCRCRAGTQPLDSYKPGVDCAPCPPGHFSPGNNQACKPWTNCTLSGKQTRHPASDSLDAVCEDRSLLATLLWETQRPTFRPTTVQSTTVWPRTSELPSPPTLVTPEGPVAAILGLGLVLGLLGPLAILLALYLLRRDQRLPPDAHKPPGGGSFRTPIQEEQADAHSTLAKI
In words: flow cytometry, 293-F transfectants. Here is the method:
as §1

The target of assay [5] is extracellular part of OX40 from Macaca mulatta fused to the transmembrane and intracellular part of hCD40, on … (Macaca mulatta; human, UniProt A0A5F7ZKD5 21-541; P25942 194-277). Kind of assay: flow cytometry, macOX40-HEK cells; 95% confidence interval. The protocol: For the assay, the transfected cells were incubated with the test antibodies and controls for 30 min at 4° C. and then detected with a-huIgG-PE (Jackson Immunoresearch) 30 min 4° C. Cells were analyzed by flow cytometry with FACS Verse (BD Biosciences).
extracellular part of OX40 from Macaca mulatta fused to the transmembrane and intracellular part of hCD40, on …, sequence (P25942 other isoform, or with tags, fused parts or gaps): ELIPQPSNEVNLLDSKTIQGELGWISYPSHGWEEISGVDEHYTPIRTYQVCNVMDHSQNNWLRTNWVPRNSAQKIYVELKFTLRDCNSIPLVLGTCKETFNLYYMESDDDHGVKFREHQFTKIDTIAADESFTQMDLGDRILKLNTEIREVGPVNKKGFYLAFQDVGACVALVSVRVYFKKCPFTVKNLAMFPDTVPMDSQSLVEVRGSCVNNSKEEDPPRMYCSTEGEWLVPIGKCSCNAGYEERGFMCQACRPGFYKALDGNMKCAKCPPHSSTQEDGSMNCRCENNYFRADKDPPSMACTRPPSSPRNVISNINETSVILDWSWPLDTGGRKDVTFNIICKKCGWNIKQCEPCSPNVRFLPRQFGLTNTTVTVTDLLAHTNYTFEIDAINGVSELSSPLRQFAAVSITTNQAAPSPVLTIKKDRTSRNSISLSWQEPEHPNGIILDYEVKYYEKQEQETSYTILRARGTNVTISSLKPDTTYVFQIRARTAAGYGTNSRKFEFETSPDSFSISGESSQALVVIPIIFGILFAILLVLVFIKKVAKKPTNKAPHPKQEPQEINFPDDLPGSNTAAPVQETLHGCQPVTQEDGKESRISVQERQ

Assay [6] concerns the target T2, CD40 (Ancell). Kind of assay: ELISA, coated CD40-Fc. The protocol: (§2) ELISA plates (Greiner #655074) were coated with 50 μl/well of recombinant human OX40 (R&D #1493-CD), CD40-Fc (Ancell #504-820) or CD137 (R&D #838-4B) diluted to a final concentration of 0.5 μg/ml in PBS for 1 h at 37° C. or overnight at 4° C. Plates were washed with PBS+0.05% TWEEN20 (PBST), followed by block with PBST+1% bovine serum albumin (BSA). Antibody samples were prepared as serial 1/10 dilutions from 10-0.01 μg/ml in PBST+1% BSA and incubated for 1h in room temperature, followed by detection using a horse radish peroxidase-conjugated anti-human kappa light chain antibody (AbD Serotec #STAR127P) and developed using SuperSignal ELISA Pico Chemiluminescent substrate (Pierce ThermoScientific #37069).

The target of assay [7] is CD137 on primary human CD8+ T cells (human, UniProt Q07011 24-255). Kind of assay: cell-based or functional assay.
CD137 on primary human CD8+ T cells, sequence (Q07011 24-255 limits assumed): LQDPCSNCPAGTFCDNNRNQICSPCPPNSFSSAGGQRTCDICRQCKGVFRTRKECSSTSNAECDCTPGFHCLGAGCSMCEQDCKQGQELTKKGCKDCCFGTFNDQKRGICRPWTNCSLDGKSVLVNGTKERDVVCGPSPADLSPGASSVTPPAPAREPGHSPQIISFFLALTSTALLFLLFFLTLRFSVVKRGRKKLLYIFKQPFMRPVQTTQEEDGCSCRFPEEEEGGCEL
For assay [8], the target named is T6, Human OX40 (R&D systems, #3358_OX) (human, UniProt P43489 29-216).
T6 construct: Bought; Several catalogue numbers are given for it; also called human OX40 (R&D Systems, 3388-OX); OX40-Fc (R&D systems, #3358_OX); not shown: Fc part
T6 sequence: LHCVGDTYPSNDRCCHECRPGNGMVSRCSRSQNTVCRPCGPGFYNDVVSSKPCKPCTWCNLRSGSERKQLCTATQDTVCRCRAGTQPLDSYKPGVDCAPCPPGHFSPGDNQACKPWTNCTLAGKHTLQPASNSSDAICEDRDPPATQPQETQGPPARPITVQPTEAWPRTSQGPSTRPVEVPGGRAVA
In words: ELISA, coated recombinant human OX40. Here is the method:
as §2

In assay [9] the target is T7, soluble murine CTLA-4 (R&D systems) (murine, UniProt P09793 36-162).
T7 construct: Bought
Kind of assay: not described. Here is the method:
In brief, 96-well flat bottom plate high binding plates (Greiner #655074) were coated with human CTLA-4 (Fitzgerald) incubating overnight at 4° C.
The sample (exemplary CD86 mutant) was pre-incubated at room temperature for 1 hour with soluble biotinylated human CTLA4 (Fitzgerald #30R-CD152) or soluble murine CTLA-4 (R&D systems) at different concentrations (serial dilutions ¼ from 30000 to 0.3 ng/ml).
The mixture was then added to the blocked wells in the ELISA plate. Detection was performed with Streptavidin-HRP (Pierce, #21126) and the plates were subsequently developed using SuperSignal Pico Chemiluminescent substrate (Thermo Scientific, #37069) and detected with Envision reader (Perkin Elmer).

For assay [10], the target named is T8, CTLA4-Fc (Fitzgerald, #30R-CD152) (human, UniProt P16410 38-152).
T8 construct: Bought; also called human CTLA-4 (Fitzgerald); biotinylated-CTLA4; not shown: Fc part of the bought fusion, not described
T8 sequence (P16410 38-152 limits assumed): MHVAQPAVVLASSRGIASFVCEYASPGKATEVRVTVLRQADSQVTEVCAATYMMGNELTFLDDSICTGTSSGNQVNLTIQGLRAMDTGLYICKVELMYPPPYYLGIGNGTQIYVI
Kind of assay: ELISA on coated CTLA4-Fc and CD28-Fc. The protocol: 96-well flat bottom high binding plates (Greiner, #655074) were coated with either CTLA4-Fc (Fitzgerald, #30R-CD152) or CD28-Fc (R&D systems, 342-CD) by incubating overnight at 4° C. […] The plates were washed again and sample or controls (serially diluted ⅕ from 200-0.001 μg/ml) were added to the wells. The samples were incubated for 1 h at room temperature and then washed. Detection antibody, goat-anti-human IgG Fcγ-HRP (Jackson, #109-035-098) was added and the plates were subsequently developed using SuperSignal Pico Chemiluminescent substrate (Thermo Scientific, #37069) and detected with an Envision reader (Perkin Elmer). EC50 values were calculated for both CTLA4 and CD28. The binding ratio (EC50 binding ratio=[EC50 for CD28]÷[EC50 for CTLA-4]) was calculated for each polypeptide and is shown in Table 1.1.

The target of assay [11] is T8, CTLA4-Fc (Fitzgerald, #30R-CD152). In words: SPR on immobilised CTLA4-Fc and CD28-Fc. Here is the method:
Either CTLA4-Fc (Fitzgerald, #30R-CD152) or CD28-Fc (R&D Systems, 342-CD) was immobilized to the Biacore™ sensor chip, CM5, using conventional amine coupling. The CD86 mutant molecules and controls (serially diluted ½ 100-1.5 nM) were analyzed for binding in HBS-P (GE, BR-1003-68) at a flow rate of […]. The association was followed for 3 minutes and the dissociation for 10 minutes. Regeneration was performed twice using 5 mM NaOH for 30 seconds. The kinetic parameters and the affinity constants were calculated using BIAevaluation 4.1 software (Table 1.3).

Changes are numbered by the printed parent chain.

Seven molecules from patent US20210238298A1 (ALLIGATOR BIOSCIENCE, published 2021) can be followed below.

T2 sequence (P25942 21-193 limits assumed): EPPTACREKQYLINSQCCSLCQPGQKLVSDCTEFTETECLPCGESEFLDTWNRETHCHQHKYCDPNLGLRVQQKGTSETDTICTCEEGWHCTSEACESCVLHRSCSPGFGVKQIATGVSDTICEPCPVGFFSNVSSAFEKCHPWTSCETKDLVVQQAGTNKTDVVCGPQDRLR

B1: anti-OX40 antibody 1514/1515 (antibody, V domains shown)
VH: EVQLLESGGGLVQPGGSLRLSCAASGFTFGYYYMSWVRQAPGKGLEWVSGISSYGSYTYYADSVKGRFTISRDNSKNTLYLQMNSLRAEDTAVYYCARSGYSNWANSFDYWGQGTLVTVSS
VL: DIQMTQSPSSLSASVGDRVTITCRASQSISSYLNWYQQKPGKAPKLLIYAASSLQSGVPSRFSGSGSGTDFTLTISSLQPEDFATYYCQQGDYTLFTFGQGTKLEIK
notes: Tested as IgG
For the molecule B1, the binding result (in the assay with murine OX40; with CD40 (Ancell) [1]; in [2]) was “no binding” throughout. The “relative MFI vs isotype control” value is 17.2 in assay [3] and 10.6 in assay [4].

B2: anti-OX40 antibody 1166/1167 (antibody, V domains shown)
VH: EVQLLESGGGLVQPGGSLRLSCAASGFTFGGYYMSWVRQAPGKGLEWVSAISGSGGSTYYADSVKGRFTISRDNSKNTLYLQMNSLRAEDTAVYYCARYDYASMDYWGQGTLVTVSS
VL: DIQMTQSPSSLSASVGDRVTITCRASQSISSYLNWYQQKPGKAPKLLIYAASSLQSGVPSRFSGSGSGTDFTLTISSLQPEDFATYYCQQYYWYGLSTFGQGTKLEIK
notes: Tested as IgG
What is called EC50 is the concentration that produces a half-maximal response. Lower therefore signals higher potency in that assay. Consider B2, for which the binding result (with murine OX40; with CD40 (Ancell) [1]; in assay [2]) was “no binding” each time. In addition, the “relative MFI vs isotype control” value in assay [3] came out at 15.8; in [4], 11.3. In [5], this molecule yielded an EC50 of 0.16 to 0.242 µg/mL.

B3: anti-OX40 antibody 1170/1171 (antibody, V domains shown)
VH: B2 VH with A50Y, S52P, A102Y, S103W
VL: B2 VL with Y91G, Y92H, W93G, Y94S, G95Y, L96P, S97H
notes: Tested as IgG
For the molecule B3, the binding result (in the assay with murine OX40; in the assay with CD40 (Ancell) [1]; in assay [2]) was “no binding” throughout. Also, the figures for the “relative MFI vs isotype control” value in [3] and in assay [4] were 20.3 and 12.1, respectively.

B4: anti-CD137 antibody 1214/1215 (antibody, IgG1, V domains shown)
VH: EVQLLESGGGLVQPGGSLRLSCAASGFTFSSYAMSWVRQAPGKGLEWVSSIGSGGGYTGYADSVKGRFTISRDNSKNTLYLQMNSLRAEDTAVYYCARVGHPFDYWGQGTLVTVSS
VL: DIQMTQSPSSLSASVGDRVTITCRASQSISSYLNWYQQKPGKAPKLLIYAASSLQSGVPSRFSGSGSGTDFTLTISSLQPEDFATYYCQQDAYPHTFGQGTKLEIK
notes: Produced as IgG; also called 1214-bio
Regarding B4, in the assay with CD40 (Ancell) [6], the binding result is reported as “no binding (tested: 10 µg/ml)”. In assay [7], the “Max IFN-γ” value worked out at 122000 pg/mL, the “Mean IFN-γ” value is 51800 pg/mL and the “Min IFN-γ” value was 8210 pg/mL. For the same molecule, in assay [8], the binding result was “no binding (tested: 10 µg/ml)”.

B5: anti-CD137 antibody 1620/1621 (antibody, IgG1, V domains shown)
VH: EVQLLESGGGLVQPGGSLRLSCAASGFTFSGYYMYWVRQAPGKGLEWVSGISSSGSYTYYADSVKGRFTISRDNSKNTLYLQMNSLRAEDTAVYYCARSVGPYFDYWGQGTLVTVSS
VL: B4 VL with D91G, A92V, Y93G, H95Y
notes: Produced as IgG
As for B5, the binding result with CD40 (Ancell) [6] is recorded as “no binding (tested: 10 µg/ml)”. Moreover, in [7], the “Max IFN-γ” value amounted to 123000 pg/mL, the “Mean IFN-γ” value stood at 52400 pg/mL and the “Min IFN-γ” value is 7730 pg/mL. In addition, the binding result in assay [8] is “no binding (tested: 10 µg/ml)”.

B6: CD86 mutant 915 (ligand)
chain: LKIQAYFNETADLPCQFANSQNQSLSELVVFWQDQENLILNEVYLGKEKFDSVDSKYMGRTSFDSDSWTLRLHNLQIKDKGFYQCIIHHKKPSGLIKIHQMDSELSVLA
notes: Variant of the CD86 extracellular domain
As for B6, the binding result in [9] is given as “binds”. Moreover, the “EC50 binding ratio ([EC50 for CD28]/[EC50 for CTLA-4])” value in [10] turned out to be 9.9. Moreover, the “Kd binding ratio ([Kd for CD28]/[Kd for CTLA-4])” value in assay [11] was 1.9.

B7: CD86 mutant 938 (ligand)
chain: B6 chain with D54H, F82I, S93T, L95M, I96V, D102N
notes: as for B6
As to B7, the binding result in [9] is recorded as “binds”. The “EC50 binding ratio ([EC50 for CD28]/[EC50 for CTLA-4])” value in assay [10] was determined as 2. Moreover, the “Kd binding ratio ([Kd for CD28]/[Kd for CTLA-4])” value in [11] is 5.5.
